Source: doi:10.1101/2020.06.29.177279 (bioRxiv, 2020)

Experiments:
Experiment in all cases: cryo-EM structure
RPC5 (from HeLa) = molecular target: T1, RPC5 (from HeLa) (human (endogenous in HeLa), UniProt Q9NVU0 1-708)
T1 sequence: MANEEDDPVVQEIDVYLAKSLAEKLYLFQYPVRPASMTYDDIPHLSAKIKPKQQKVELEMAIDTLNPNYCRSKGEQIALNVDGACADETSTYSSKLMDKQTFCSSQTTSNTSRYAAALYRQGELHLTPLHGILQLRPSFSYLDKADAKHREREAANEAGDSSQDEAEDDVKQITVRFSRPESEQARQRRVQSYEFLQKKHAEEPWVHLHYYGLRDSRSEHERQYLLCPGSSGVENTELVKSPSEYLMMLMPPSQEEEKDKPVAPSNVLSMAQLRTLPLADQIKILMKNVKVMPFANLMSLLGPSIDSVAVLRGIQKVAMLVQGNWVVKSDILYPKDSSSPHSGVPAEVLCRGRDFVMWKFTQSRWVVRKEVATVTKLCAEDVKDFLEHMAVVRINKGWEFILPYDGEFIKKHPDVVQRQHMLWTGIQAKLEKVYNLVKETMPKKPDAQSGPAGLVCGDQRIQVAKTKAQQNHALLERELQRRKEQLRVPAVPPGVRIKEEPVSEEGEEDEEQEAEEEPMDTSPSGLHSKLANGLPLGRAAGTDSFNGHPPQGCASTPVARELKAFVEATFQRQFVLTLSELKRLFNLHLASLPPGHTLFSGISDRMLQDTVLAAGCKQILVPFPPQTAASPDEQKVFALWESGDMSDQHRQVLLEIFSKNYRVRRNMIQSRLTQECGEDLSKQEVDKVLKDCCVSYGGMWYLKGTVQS

RPC8 = molecular target: T2, RPC8 (human (endogenous in HeLa), UniProt Q9Y535 1-204)
T2 sequence: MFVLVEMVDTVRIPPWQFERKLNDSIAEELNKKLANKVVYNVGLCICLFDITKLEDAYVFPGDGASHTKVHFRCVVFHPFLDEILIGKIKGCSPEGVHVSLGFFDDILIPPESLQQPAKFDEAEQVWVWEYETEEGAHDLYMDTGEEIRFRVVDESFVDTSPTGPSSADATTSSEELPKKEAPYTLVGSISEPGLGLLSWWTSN

RPABC1 = RPABC1 (human (endogenous in HeLa), UniProt P19388 1-210)

B1: RPC4 (from HeLa) (natural protein)
chain: MSEGNAAGEPSTPGGPRPLLTGARGLIGRRPAPPLTPGRLPSIRSRDLTLGGVKKKTFTPNIISRKIKEEPKEEVTVKKEKRERDRDRQREGHGRGRGRPEVIQSHSIFEQGPAEMMKKKGNWDKTVDVSDMGPSHIINIKKEKRETDEETKQILRMLEKDDFLDDPGLRNDTRNMPVQLPLAHSGWLFKEENDEPDVKPWLAGPKEEDMEVDIPAVKVKEEPRDEEEEAKMKAPPKAARKTPGLPKDVSVAELLRELSLTKEEELLFLQLPDTLPGQPPTQDIKPIKTEVQGEDGQVVLIKQEKDREAKLAENACTLADLTEGQVGKLLIRKSGRVQLLLGKVTLDVTMGTACSFLQELVSVGLGDSRTGEMTVLGHVKHKLVCSPDFESLLDHKHR
**Q.** Does B1 bind (RPC5 (from HeLa))?
**A.** Result: binds

B2: RPC9 (natural protein)
chain: not shown
**Q.** Does B2 bind (RPC8)?
**A.** Result: binds

B3: RPC1, largest subunit of human Pol III (from HeLa) (natural protein)
chain: MVKEQFRETDVAKKISHICFGMKSPEEMRQQAHIQVVSKNLYSQDNQHAPLLYGVLDHRMGTSEKDRPCETCGKNLADCLGHYGYIDLELPCFHVGYFRAVIGILQMICKTCCHIMLSQEEKKQFLDYLKRPGLTYLQKRGLKKKISDKCRKKNICHHCGAFNGTVKKCGLLKIIHEKYKTNKKVVDPIVSNFLQSFETAIEHNKEVEPLLGRAQENLNPLVVLNLFKRIPAEDVPLLLMNPEAGKPSDLILTRLLVPPLCIRPSVVSDLKSGTNEDDLTMKLTEIIFLNDVIKKHRISGAKTQMIMEDWDFLQLQCALYINSELSGIPLNMAPKKWTRGFVQRLKGKQGRFRGNLSGKRVDFSGRTVISPDPNLRIDEVAVPVHVAKILTFPEKVNKANINFLRKLVQNGPEVHPGANFIQQRHTQMKRFLKYGNREKMAQELKYGDIVERHLIDGDVVLFNRQPSLHKLSIMAHLARVKPHRTFRFNECVCTPYNADFDGDEMNLHLPQTEEAKAEALVLMGTKANLVTPRNGEPLIAAIQDFLTGAYLLTLKDTFFDRAKACQIIASILVGKDEKIKVRLPPPTILKPVTLWTGKQIFSVILRPSDDNPVRANLRTKGKQYCGKGEDLCANDSYVTIQNSELMSGSMDKGTLGSGSKNNIFYILLRDWGQNEAADAMSRLARLAPVYLSNRGFSIGIGDVTPGQGLLKAKYELLNAGYKKCDEYIEALNTGKLQQQPGCTAEETLEALILKELSVIRDHAGSACLRELDKSNSPLTMALCGSKGSFINISQMIACVGQQAISGSRVPDGFENRSLPHFEKHSKLPAAKGFVANSFYSGLTPTEFFFHTMAGREGLVDTAVKTAETGYMQRRLVKSLEDLCSQYDLTVRSSTGDIIQFIYGGDGLDPAAMEGKDEPLEFKRVLDNIKAVFPCPSEPALSKNELILTTESIMKKSEFLCCQDSFLQEIKKFIKGVSEKIKKTRDKYGINDNGTTEPRVLYQLDRITPTQVEKFLETCRDKYMRAQMEPGSAVGALCAQSIGEPGTQMTLKTFHFAGVASMNITLGVPRIKEIINASKAISTPIITAQLDKDDDADYARLVKGRIEKTLLGEISEYIEEVFLPDDCFILVKLSLERIRLLRLEVNAETVRYSICTSKLRVKPGDVAVHGEAVVCVTPRENSKSSMYYVLQFLKEDLPKVVVQGIPEVSRAVIHIDEQSGKEKYKLLVEGDNLRAVMATHGVKGTRTTSNNTYEVEKTLGIEAARTTIINEIQYTMVNHGMSIDRRHVMLLSDLMTYKGEVLGITRFGLAKMKESVLMLASFEKTADHLFDAAYFGQKDSVCGVSECIIMGIPMNIGTGLFKLLHKADRDPNPPKRPLIFDTNEFHIPLVT
**Q.** Does B3 bind (RPABC1)?
**A.** Result: binds
